# Earlier results as cited in patent US20060234934A1, “Composition and Method for Selective Cytostasis” (priority 2005, published 2006).
# System: human embryonic palatal mesenchymal cells
molecule,measurement,value
"EGF: Epidermal Growth Factor (protein, UniProt P01133 23-1207, looked up, Pro-epidermal growth factor) Pro-epidermal growth factor: PQHWSCPEGTLAGNGNSTCVGPAPFLIFSHGNSIFRIDTEGTNYEQLVVDAGVSVIMDFHYNEKRIYWVDLERQLLQRVFLNGSRQERVCNIEKNVSGMAINWINEEVIWSNQQEGIITVTDMKGNNSHILLSALKYPANVAVDPVERFIFWSSEVAGSLYRADLDGVGVKALLETSEKITAVSLDVLDKRLFWIQYNREGSNSLICSCDYDGGSVHISKHPTQHNLFAMSLFGDRIFYSTWKMKTIWIANKHTGKDMVRINLHSSFVPLGELKVVHPLAQPKAEDDTWEPEQKLCKLRKGNCSSTVCGQDLQSHLCMCAEGYALSRDRKYCEDVNECAFWNHGCTLGCKNTPGSYYCTCPVGFVLLPDGKRCHQLVSCPRNVSECSHDCVLTSEGPLCFCPEGSVLERDGKTCSGCSSPDNGGCSQLCVPLSPVSWECDCFPGYDLQLDEKSCAASGPQPFLLFANSQDIRHMHFDGTDYGTLLSQQMGMVYALDHDPVENKIYFAHTALKWIERANMDGSQRERLIEEGVDVPEGLAVDWIGRRFYWTDRGKSLIGRSDLNGKRSKIITKENISQPRGIAVHPMAKRLFWTDTGINPRIESSSLQGLGRLVIASSDLIWPSGITIDFLTDKLYWCDAKQSVIEMANLDGSKRRRLTQNDVGHPFAVAVFEDYVWFSDWAMPSVMRVNKRTGKDRVRLQGSMLKPSSLVVVHPLAKPGADPCLYQNGGCEHICKKRLGTAWCSCREGFMKASDGKTCLALDGHQLLAGGEVDLKNQVTPLDILSKTRVSEDNITESQHMLVAEIMVSDQDDCAPVGCSMYARCISEGEDATCQCLKGFAGDGKLCSDIDECEMGVPVCPPASSKCINTEGGYVCRCSEGYQGDGIHCLDIDECQLGEHSCGENASCTNTEGGYTCMCAGRLSEPGLICPDSTPPPHLREDDHHYSVRNSDSECPLSHDGYCLHDGVCMYIEALDKYACNCVVGYIGERCQYRDLKWWELRHAGHGQQQKVIVVAVCVVVLVMLLLLSLWGAHYYRTQKLLSKNPKNPYEESSRDVRSRRPADTEDGMSSCPQPWFVVIKEHQDLKNGGQPVAGEDGQAADGSMQPTSWRQEPQLCGMGTEQGCWIPVSSDKGSCPQVMERSFHMPSYGTQTLEGGVEKPHSLLSANPLWQQRALDPPHQMELTQ",stimulation of incorporation of 3[H]-thymidine into newly synthesized DNA,a little more than twofold
